Source: publication doi:10.1101/2023.12.18.572191, “Broadly neutralizing antibody induction by non-stabilized SARS-CoV-2 Spike mRNA vaccination in nonhuman primates” (bioRxiv, 2023)

Biological target: T1, SARS-CoV-2 S HexaPro Protein (SARS-CoV-2, Wuhan-Hu-1, stabilised)
T1 construct: also called Hexapro spike; SARS-CoV-2 spike ectodomain
Assay: cryo-EM structure
Details: both partners purified

B1: DH1338 antigen-binding fragment (Fab) (Fab, V domains shown)
VH: QLQLQESGPGLVKPSETLSLTCAVSGGSISRKNWSWIRQPPGKGLGWIGRISGSGGSTDYNPSLKSRVTISTDTSKNQFSLKLSSVTAADTAVYYCARVAYYEDDYGYYYTEGAFDFWGQGLRVTVSS
VL: EIVMTQSPATLSLSPGERATLSCRTSQSVSSYVAWYQQKPEQTPRLLIYDASSRATGIPDRFSGGGSGTDFTLTISSLEPEDFAVYYCQQYSNWPWTFGQGTKVEIK
notes: also called DH1338 Fab
For B1, the “stoichiometry N” value was 3.
